Experimental data: patent US20220403048A1, “BINDING MOLECULES TO ARGINASE II [ARG2]” (Cancer Research Technology Limited, priority 2019, published 2022)

Molecular target: recombinant human trimeric ARG2 enzyme (construct not given) (human) (UniProt P78540)
Assay: cell-based or functional assay

Sequence of recombinant human trimeric ARG2 enzyme (construct not given) (human) (P78540 23-354, form in doubt): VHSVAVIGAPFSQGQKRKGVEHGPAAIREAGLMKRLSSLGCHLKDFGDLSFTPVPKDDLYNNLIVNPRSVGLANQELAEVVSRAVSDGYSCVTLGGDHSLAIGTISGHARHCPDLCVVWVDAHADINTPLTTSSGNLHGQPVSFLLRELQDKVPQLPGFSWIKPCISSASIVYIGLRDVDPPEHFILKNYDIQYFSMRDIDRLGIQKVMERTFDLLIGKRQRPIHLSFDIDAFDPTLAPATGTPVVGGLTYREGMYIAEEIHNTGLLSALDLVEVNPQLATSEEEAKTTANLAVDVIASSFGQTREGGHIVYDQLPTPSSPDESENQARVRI

EC50, In Presence of rhARG2 (T cell proliferation): > 2 µM | Maximum % Proliferation, In Presence of rhARG2: 7%
Substance: NIP228 human IgG1 (antibody)
